Tests used:
hPD-1 on CHO cells [1] = biological target: T1, hPD-1 on CHO cells (human, UniProt Q15116); test: cell-based or functional assay
hPD-1 on CHO cells [2] = biological target: T1, hPD-1 on CHO cells; test: flow cytometry on cells; competition: PD-1-expressing CHO-S cells with serial dilutions of anti-PD-1 at 4 °C for 15 min, then human Fc (IgG1)-labeled PD-L1 at 4 °C for 1 h in PBS/2% BSA; bound PD-L1 detected with PE anti-human IgG1/3; conditions: one partner purified
mPD-1 on CHO cells = biological target: T2, mPD-1 on CHO cells (mouse, UniProt Q02242); test: as above; conditions: one partner purified
T2 construct: also called mPD-1-expressing CHO cells; cellular mPD-1; source: CHO cells, stably transfected (pCMV3 vector), on cells

[3] = biological target: T3, hPD-1 L128A on HEK293T cells (Homo sapiens, UniProt Q15116, L128A); test: flow cytometry on cells; shotgun mutagenesis alanine scan (Integral Molecular): hPD-1 wild type or mutants transiently expressed in HEK293 T cells, incubated with antibody, Alexa Fluor 488 secondary antibody; non-blocking control anti-PD-1 as reference; conditions: one partner purified
T3 construct: programmed cell death 1 (PD-1), human, alanine mutant of the shotgun mutagenesis library; source: HEK293 T cells, transiently transfected, on cells

[4] = biological target: T4, hPD-1 P130A on HEK293T cells (Homo sapiens, UniProt Q15116, P130A); test: as above; conditions: one partner purified
T4 construct: programmed cell death 1 (PD-1), human, alanine mutant of the shotgun mutagenesis library; source: HEK293 T cells, transiently transfected, on cells

[5] = biological target: T5, hPD-1 I126A on HEK293T cells (Homo sapiens, UniProt Q15116, I126A); test: as above; conditions: one partner purified
T5 construct: programmed cell death 1 (PD-1), human, alanine mutant of the shotgun mutagenesis library; source: HEK293 T cells, transiently transfected, on cells
T5 sequence (Q15116 25-288 I126A): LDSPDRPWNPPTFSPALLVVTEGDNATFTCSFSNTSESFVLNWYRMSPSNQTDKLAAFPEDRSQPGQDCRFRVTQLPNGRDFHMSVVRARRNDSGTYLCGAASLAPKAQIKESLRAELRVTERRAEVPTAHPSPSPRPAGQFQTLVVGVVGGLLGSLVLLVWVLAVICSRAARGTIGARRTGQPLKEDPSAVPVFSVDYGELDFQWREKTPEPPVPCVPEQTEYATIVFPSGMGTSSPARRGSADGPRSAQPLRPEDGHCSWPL

T1 sequence (Q15116 25-288): as the sequence (Q15116 25-288 I126A) above, with A102I counted along it
T4 sequence (Q15116 25-288 P130A): as the sequence (Q15116 25-288 I126A) above, with A102I, P106A counted along it
T2 sequence (Q02242 25-288): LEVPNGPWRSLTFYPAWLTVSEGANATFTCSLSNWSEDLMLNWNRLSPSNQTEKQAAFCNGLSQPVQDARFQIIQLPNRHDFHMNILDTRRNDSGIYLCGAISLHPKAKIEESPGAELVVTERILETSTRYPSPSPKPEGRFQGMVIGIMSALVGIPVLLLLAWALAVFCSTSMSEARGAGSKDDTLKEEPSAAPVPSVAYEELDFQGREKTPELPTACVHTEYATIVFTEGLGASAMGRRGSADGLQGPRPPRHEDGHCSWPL
T3 sequence (Q15116 25-288 L128A): as the sequence (Q15116 25-288 I126A) above, with A102I, L104A counted along it

reporter assay: luciferase (NFAT-RE) in Jurkat T cells expressing hPD-1 with human PD-L1 aAPC/CHO-K1 cells; IC50 of blocking hPD-1/hPD-L1 (hPD-1 on CHO cells [1]): 6.3 nM | IC50 (hPD-1 on CHO cells [2]): 9.9 nM | IC50 (mPD-1 on CHO cells): 6.7 nM
B1: GNUV201 (antibody, V domains shown)
VH: QVQLVQSGAEVKKPGASVKVSCKASGYTFTGYWMHWVRQAPGQGLEWIGMIHPNSDTTTYNEKFKNRVTMTRDTSISTAYMELSRLRSDDTAVYYCAGTDQAAWFAFWGQGTTVTVSS
VL: DIVMTQTPLSLSVTPGQPASISCRSSQNIVHSQGDTYLEWYLQKPGQSPQLLIYKVSKRFSGVPDRFSGSGSGTDFTLKISRVEAEDVGVYYCFQGSHVPWTFGGGTKVEIK
notes: humanized VH: CDRs of mouse clone 1G1 grafted into human IgG framework, with select point mutations; human IgG4 heavy chain constant region, hinge-stabilised S228P variant; IgG4 (S228P); the data statement says that datasets are available on request; also called humanized GNUV201; anti-PD-1; copies: 2 + 2
percent of WT PD-1 control binding [3]: 38.5% | percent of WT PD-1 control binding [4]: 19.5% | percent of WT PD-1 control binding [5]: 46.6%

From PMC11088064 (BMC Immunology, 2024)
